In this data set the test system is Streptavidin. Kind of data set: DRaCALA. The conditions noted are these: 5'-biotin on one strand.

Regarding 3x ICAP PCR probe with biotin, the Kd was 0.4 nM.

By Kd is commonly meant the concentration at which binding is half-saturated. A lower Kd goes with a tighter complex.

The values above are taken from article PMC3326337.
